Assay results taken from PMC5048595.

T1: hPolη (human DNA polymerase eta) (Homo sapiens, UniProt Q9Y253 1-713)
T1 sequence: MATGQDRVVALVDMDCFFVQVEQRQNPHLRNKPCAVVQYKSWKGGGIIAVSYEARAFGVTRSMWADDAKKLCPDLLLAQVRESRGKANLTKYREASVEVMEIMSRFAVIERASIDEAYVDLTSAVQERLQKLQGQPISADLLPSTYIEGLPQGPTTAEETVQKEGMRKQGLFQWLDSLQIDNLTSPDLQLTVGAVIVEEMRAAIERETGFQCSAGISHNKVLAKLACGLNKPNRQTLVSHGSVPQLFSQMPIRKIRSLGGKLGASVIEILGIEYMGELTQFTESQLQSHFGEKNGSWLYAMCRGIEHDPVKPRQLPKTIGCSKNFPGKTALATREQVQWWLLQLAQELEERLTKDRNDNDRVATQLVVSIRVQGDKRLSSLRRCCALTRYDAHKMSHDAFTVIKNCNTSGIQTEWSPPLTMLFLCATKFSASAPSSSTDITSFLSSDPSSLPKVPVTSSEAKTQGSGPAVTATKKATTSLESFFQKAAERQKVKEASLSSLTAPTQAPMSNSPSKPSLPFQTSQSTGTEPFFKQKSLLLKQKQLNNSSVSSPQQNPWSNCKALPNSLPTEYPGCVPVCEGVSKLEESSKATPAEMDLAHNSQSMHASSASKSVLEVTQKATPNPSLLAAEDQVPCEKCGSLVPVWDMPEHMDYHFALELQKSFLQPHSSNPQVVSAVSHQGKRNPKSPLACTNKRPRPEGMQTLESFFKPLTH

B1: 21/26-mer-dGC8-N-ABA (dsDNA)
DNA 1: AACGACGGCCAGTGAATTCGC
DNA 2: CCCGCGCGAATTCACTGGCCGTCGTT
modifications: template dG at position 21 from 3' end (6 from 5' end) is N-(2'-deoxyguanosin-8-yl)-3-aminobenzanthrone
B2: 19/26-mer (dsDNA)
DNA 1: AACGACGGCCAGTGAATTC
DNA 2: CCCGCGCGAATTCACTGGCCGTCGTT
B3: 22/26-mer-dGC8-N-ABA (dsDNA)
DNA 1: AACGACGGCCAGTGAATTCGCG
DNA 2: CCCGCGCGAATTCACTGGCCGTCGTT
modifications: template dG at position 21 from 3' end (6 from 5' end) is N-(2'-deoxyguanosin-8-yl)-3-aminobenzanthrone
B4: 20/26-mer (dsDNA)
DNA 1: AACGACGGCCAGTGAATTCG
DNA 2: CCCGCGCGAATTCACTGGCCGTCGTT
B5: 18/26-mer (dsDNA)
DNA 1: AACGACGGCCAGTGAATT
DNA 2: CCCGCGCGAATTCACTGGCCGTCGTT
B6: 20/26-mer-dGC8-N-ABA (dsDNA)
DNA 1: AACGACGGCCAGTGAATTCG
DNA 2: CCCGCGCGAATTCACTGGCCGTCGTT
modifications: template dG at position 21 from 3' end (6 from 5' end) is N-(2'-deoxyguanosin-8-yl)-3-aminobenzanthrone
B7: 21/26-mer (dsDNA)
DNA 1: AACGACGGCCAGTGAATTCGC
DNA 2: CCCGCGCGAATTCACTGGCCGTCGTT
B8: 18/26-mer-dGC8-N-ABA (dsDNA)
DNA 1: AACGACGGCCAGTGAATT
DNA 2: CCCGCGCGAATTCACTGGCCGTCGTT
modifications: template dG at position 21 from 3' end (6 from 5' end) is N-(2'-deoxyguanosin-8-yl)-3-aminobenzanthrone
B9: 19/26-mer-dGC8-N-ABA (dsDNA)
DNA 1: AACGACGGCCAGTGAATTC
DNA 2: CCCGCGCGAATTCACTGGCCGTCGTT
modifications: template dG at position 21 from 3' end (6 from 5' end) is N-(2'-deoxyguanosin-8-yl)-3-aminobenzanthrone
B10: 22/26-mer (dsDNA)
DNA 1: AACGACGGCCAGTGAATTCGCG
DNA 2: CCCGCGCGAATTCACTGGCCGTCGTT

Target: T1, hPolη (human DNA polymerase eta)
Assay: EMSA

B1 and B2 are within error of each other in Kd: 26 ± 7 nM for the first, 25 ± 5 nM for the second.

B3 and B4 are within error of each other in Kd: 24 ± 4 nM for the first, 23 ± 2 nM for the second.

First: B5
Second: B6
The Kd of the first is 2.3-fold higher: 28 ± 3 nM for the first, 12 ± 2 nM for the second.

B7 and B8 are within error of each other in Kd: 26 ± 1 nM for the first, 32 ± 5 nM for the second.

B9 and B10 are within error of each other in Kd: 12 ± 2 nM for the first, 17 ± 6 nM for the second.
